How the values were obtained:
[1] = molecular target: SARS-CoV-2-S-RBD-mmH (SARS-CoV-2); settings: remark: other sources report otherwise
[2] = molecular target: SARS-CoV-2 RBD extracellular domain expressed with a C-terminal myc-myc-hexahistidine tag (SARS-COV-2 RBD-MMH) (SARS-CoV-2); settings: remark: other sources report otherwise

Binder | Binding Signal (absorbance at 450 nm) (absorbance at 450 nm) [1] | t½ (dissociative half-life) [2] [min]
mAb11006 (antibody, V domains shown) VH: EVQLVESGGGLVQPGGSLRLSCAASGFIVSRNYMSWVRQAPGKGLEWVSVIYSGGSTFYADSVKGRFTISRHNSKNTLYLQMNSLKAEDTAVYYCARELRGYFDYWGQGTLVTVSS VL: DIQLTQSPSFLSASVGDRVTITCWASQGISSYLAWYQQKPGKAPKLLIYAASTLQSGVPSRFSGSGSGTEFTLTISSLQPEDFATYYCQLLNSYPYTFGQGTKLEIK | 2.62 | 31.5
mAb11008 (antibody, V domains shown) VH: EVQLVESGGGLVQPGGSLRLSCAASGFTVSSNYMTWVRQAPGKGLEWVSVIYSGGSTFYADSVKGRFTISRHNSENTLYLQMNSLRAEDTAVYYCARDLAAAGTDYWGQGALVTVSS VL: DIQLTQSPSFLSASVGDRVTITCWASQGISSYLAWYQQKPGKAPKLLIYAASTLQSGVPSRFSGSGSGTEFTLTISSLQPDDFATYYCQHLNSYLYTFGQGTKLEIK | 2.91 | 2.9
mAb11004 (antibody, V domains shown) VH: QVQLVESGGGVVQPGRSLRLSCVASGFTFSIYGMDWVRQAPGKGLEWVAVISYDGSNKYYADSVKGRFTISRDNSKNTLYLQMNSLRPEDTAVYYCAKDREAAADAFDIWGQGTMVTVSS VL: DIQMTQSPSSVSASVGDRVTITCRASQGISSWLAWYQQKPGKAPKLLIYAASSLHSGVPSRFSGSGSGTDFTLTISSLQPEDFATYYCQQANSFRLTFGGGTKVEIK | 2.91 | 3.7
mAb10998 (antibody, V domains shown) VH: EVQLVESGGGLVHPGGSLRLSCAASGLTVSSNYMSWVRQAPGKGLEWVSVIYSGGSTYYADSVKGRFTISRHNSKNTLFLQMNSLRAEDTAVYYCARDRPITGTTLDVWGQGTTVTVSS VL: DIQMTQSPSSLFASVGDRVTITCRASQSISSYLNWYQQKPGKAPKLLIYAASSLQSGVPSRFSGSGSGTDFTLTISSLQPEDFAFYYCQQTYSTPPITFGQGTRLEIK | 2.83 | 0.5

Reference: patent US20230348569A1
